Drawing on patent US20140248278A1, “ANTI-CD22 ANTIGEN BINDING MOLECULES TO TREAT LUNG CANCER AND PROSTATE CANCER” (The Regents of the University of California, priority 2011, published 2014), this text covers cytotoxic effects and cytotoxic response for one substance.

Data set [1] relates to Ramos NHL cells. The experiment in a line: In vitro cytotoxicity assay, Ramos cells. The following applies: after 48 hours. It counts as cell-based, human. The procedure: (§1) FIGS. 2A-C illustrate anti-CD22 mediated cytotoxicity and CD22 internalization. (A) Ligation of CD22 mediates cytotoxicity of NSCLC and NHL B cells. Cells were treated with the anti-CD22 or anti-CD20 mAbs (HB22.7 or rituximab, respectively) (50 ug/ml) for 48 hr then assessed with an MTT assay. (B) Internalization of CD22 was assessed on NSCLC cell lines. The degree of internalization was determined by assessing the cytotoxicity of a carrier protein attached to an anti-mouse mAb (ZAP) compared to a non-cytotoxic control (SAP). HB22.7-ZAP and HB22.7-SAP were assessed in Ramos B-cells (top) and two NSCLC cell lines, A549 and H727 (bottom). […] PBMCs (10:1 PBMC:A549 ratio) were incubated +/− complement (1:10 dilution), or +/− huHB22.7 (50 μg/cc). A549-specific cytotoxicity was assessed with a DELFIA EuTDA cytotoxicity assay and reported as % of control.
(§2) Ramos, A549, or H1650 cells (2-2.5×10^4 per sample) were plated in triplicate in 96 well round bottom plates in a volume of 100 μL per well. Cells were treated for 1 hour with HB22.7, or rituximab to final concentrations of 25 μg/mL. Control cells received media only. […] Viability was assessed by trypan blue exclusion; experiments were done in triplicate and results were expressed as % of control (untreated cells) with the error bars representing the standard deviation.

The test system of data set [2] is NSCLC lines (H1650, Calu-1, A549). Put plainly: In vitro cytotoxicity assay, NSCLC lines. The following applies: after 48 hours. It counts as cell-based, human. How it is done: as §1, §2

In the case of rituximab: anti-CD20 control mAb, the cytotoxic effects result in data set [1] is recorded as “cytotoxic effects”. Moreover, the cytotoxic response entry in data set [2] is on record as “no cytotoxic response”.
